Here are results for 1 molecule from patent US20220185894A1 (F STAR THERAPEUTICS, published 2022).

Broadly, the EC50 is the concentration that produces a half-maximal response. A higher EC50 goes with a need for much substance. Broadly, the Kd is a measure of binding affinity in units of concentration. A word on the koff: it is a measure of how fast the partners let go of each other. Usually kon stands for the second-order rate constant of association.

Several values for one entry are separate records, joined by “and”; a condition that tells them apart may be missing. Identical values can stand only once.

Assay [1] deals with T1, human PD-L1 expressed on cells (human, UniProt Q9NZQ7 19-290). Kind of assay: cell-based or functional assay.
T1 sequence (Q9NZQ7 19-290 limits assumed): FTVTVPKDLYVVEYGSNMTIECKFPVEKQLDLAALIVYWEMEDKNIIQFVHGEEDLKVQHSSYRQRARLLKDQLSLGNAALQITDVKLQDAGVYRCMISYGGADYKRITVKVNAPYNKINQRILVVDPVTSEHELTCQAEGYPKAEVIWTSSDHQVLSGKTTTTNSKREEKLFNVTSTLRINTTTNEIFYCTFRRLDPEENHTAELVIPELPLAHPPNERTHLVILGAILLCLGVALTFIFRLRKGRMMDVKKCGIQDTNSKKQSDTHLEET
For assay [2], the target named is T1, human PD-L1 expressed on cells. Kind of assay: flow cytometry on HEK cells expressing human PD-L1. The protocol:
(§1) HEK cells expressing human or cynomolgus PD-L1 grown in DMEM (Life Technologies, 61965-026) containing 10% FBS (Life Technologies, 10270-1-6), 100 μg/ml Hygromycin B (Melford Laboratories Ltd, Z2475), 15 μg/ml Blasticidin (Melford Laboratories Ltd, B1105) and 1 μg/ml Doxycyclin (Sigma, D9891) were detached from tissue culture flasks using cell dissociation buffer (Life Technologies, 13151-014) and seeded in V-bottom 96-well plates (Costar, 3897) at 2×10⁵ cells/well. The plates were centrifuged at 1500 rpm for 3 min at 4° C. to pellet the cells. A dilution series of the mAb² (or control mAb) was incubated with the cells in a 100 μl volume for 1 h at 4° C. The plates were washed and secondary antibody (Anti-human Fc-488, Jackson ImmunoResearch, 109-546-098) was diluted 1:1000 in PBS and 100 μl was added to the cells for 30 min at 4° C. (plates were kept in the dark). The plates were washed then cells were resuspended in 100 μl PBS containing 1 μg/ml DAPI (Biotium, 40043). The plates were read using Canto II flow cytometer (BD Bioscience). Dead cells were excluded and the fluorescence in the FITC channel (488 nm/530/30) was measured. The data was fit using log (agonist) vs response in GraphPad Prism Software. The plates were read on a BD FACSCanto II cytometer (BD Biosciences) and the data analysed using FlowJo.
Background: Flow cytometry measures light scatter and fluorescence of single cells or particles in a stream.

For assay [3], the target named is T2, cynomolgus PD-L1 expressed on cells (cynomolgus monkey, UniProt Q9NZQ7 19-290 (human entry)).
T2 construct: also called cPD-L1; cyno PD-L1
T2 sequence (Q9NZQ7 other isoform, or with tags, fused parts or gaps limits assumed): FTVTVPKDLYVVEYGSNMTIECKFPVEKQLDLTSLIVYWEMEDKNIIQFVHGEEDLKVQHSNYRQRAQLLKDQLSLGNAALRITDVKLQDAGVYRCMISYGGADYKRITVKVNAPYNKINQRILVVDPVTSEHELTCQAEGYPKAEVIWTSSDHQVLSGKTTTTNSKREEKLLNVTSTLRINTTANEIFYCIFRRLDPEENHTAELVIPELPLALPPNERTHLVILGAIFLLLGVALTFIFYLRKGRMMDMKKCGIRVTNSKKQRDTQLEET
Kind of assay: flow cytometry on HEK cells expressing cynomolgus PD-L1. The procedure: as §1

Assay [4] has as its target T3, human PD-L1 Fc (R&D Systems, 156-B7) (human, UniProt Q9NZQ7 19-239).
T3 construct: Bought protein; not shown: Fc tag of the bought fusion protein
As to the kind of experiment: SPR, BIAcore T200; mAb2 captured on Protein L, PD-L1 Fc injected. (In SPR one partner is held on a chip, and binding of the other changes the refractive index at the surface.)

Assay [5] concerns the target T4, recombinant Fc-tagged human LAG-3 (R&D Systems, 2319-L3-050) (human, UniProt P18627 23-450).
T4 construct: Bought protein; also called LAG-3 Fc; human LAG-3-Fc; not shown: Fc tag of the bought fusion protein
T4 sequence: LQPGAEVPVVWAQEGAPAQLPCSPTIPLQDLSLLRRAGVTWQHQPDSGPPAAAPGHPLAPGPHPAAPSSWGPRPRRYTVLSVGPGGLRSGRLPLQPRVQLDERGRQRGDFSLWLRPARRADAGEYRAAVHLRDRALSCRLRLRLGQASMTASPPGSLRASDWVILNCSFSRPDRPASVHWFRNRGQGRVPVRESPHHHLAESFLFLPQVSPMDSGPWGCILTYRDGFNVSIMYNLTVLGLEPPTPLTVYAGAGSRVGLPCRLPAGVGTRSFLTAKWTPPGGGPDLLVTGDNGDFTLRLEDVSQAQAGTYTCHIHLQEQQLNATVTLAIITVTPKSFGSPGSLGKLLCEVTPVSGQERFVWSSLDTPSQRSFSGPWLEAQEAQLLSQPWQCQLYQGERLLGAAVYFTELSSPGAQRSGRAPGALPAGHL
Kind of assay: SPR, BIAcore T200; mAb2 captured on Protein L, human LAG-3 Fc injected.

T3 sequence (Q9NZQ7 19-239 limits assumed): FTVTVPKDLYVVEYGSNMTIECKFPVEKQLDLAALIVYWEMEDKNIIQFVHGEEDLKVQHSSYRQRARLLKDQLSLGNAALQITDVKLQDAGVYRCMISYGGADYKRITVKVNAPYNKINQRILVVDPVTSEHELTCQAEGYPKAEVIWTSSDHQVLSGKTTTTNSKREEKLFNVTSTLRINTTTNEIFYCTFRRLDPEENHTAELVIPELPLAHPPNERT

B1: anti-human LAG-3/PD-L1 mAb2 FS18-7-9/84G09 with LALA mutation (bispecific antibody, human IgG1, kappa, L234A L235A)
heavy: EVQLVESGGGLVQPGRSLRLSCAASGFTFDDYAMHWVRQTPGKGLEWVSGISWKSNIIGYADSVKGRFTISRDNAKNSLYLQMNSLRAEDTALYYCARDITGSGSYGWFDPWGQGTLVTVSSASTKGPSVFPLAPSSKSTSGGTAALGCLVKDYFPEPVTVSWNSGALTSGVHTFPAVLQSSGLYSLSSVVTVPSSSLGTQTYICNVNHKPSNTKVDKKVEPKSCDKTHTCPPCPAPEAAGGPSVFLFPPKPKDTLMISRTPEVTCVVVDVSHEDPEVKFNWYVDGVEVHNAKTKPREEQYNSTYRVVSVLTVLHQDWLNGKEYKCKVSNKALPAPIEKTISKAKGQPREPQVYTLPPSWDEPWGEDVSLTCLVKGFYPSDIAVEWESNGQPENNYKTTPPVLDSDGSFFLYSKLTVPYDRWVWPDEFSCSVMHEALHNHYTQKSLSLSPG
light: DIQMTQSPSSLSASVGDRVTITCRASQSISSYLNWYQQKPGKAPKPLIYVASSLQSGVPSSFSGSGSGTDFTLTISSLQPEDFATYYCQQSYSNPITFGQGTRLEIKRTVAAPSVFIFPPSDEQLKSGTASVVCLLNNFYPREAKVQWKVDNALQSGNSQESVTEQDSKDSTYSLSSTLTLSKADYEKHKVYACEVTHQGLSSPVTKSFNRGEC
notes: also called FS18-7-09/84G09LALA; FS18-7-9/84G09 LALA
In the case of B1, the “Maximal IL2 release calculated as % ctrl (84G09 + 25F7)” value in assay [1] is 65.9%. For the same molecule, in assay [2], the EC50 was 3.19 nM and 3.51 nM. For the same molecule, the EC50 in assay [3] is 1.67 nM and 1.81 nM. Also, in assay [4], the Kd is 1 nM, the koff was determined as 0.00039 s⁻¹ and the kon was 380000 M⁻¹ s⁻¹. Also, in assay [5], the Kd was determined as 0.056 nM, the dissociation rate constant (koff) was 0.00035 s⁻¹ and the kon stood at 6.3e+06 M⁻¹ s⁻¹.
